This passage reports half recovery time T1/2 of EGFR–eGFP fluorescence in stripe FRAP on F1-10 cells, before and 2.5 min after 50 nM EGF results from paper PMC6650801.

The target in this assay is EGFR–eGFP fusion protein (epidermal growth factor receptor fused to the F64L, S65T mutant of GFP) (UniProt P00533).

On to “murine EGF (epidermal growth factor) (from UniProt P01132 977-1029) (ligand)”, for which the half recovery time T1/2 of EGFR–eGFP fluorescence in stripe FRAP on F1-10 cells, before and 2.5 min after 50 nM EGF came out at 6.4 s.
